Assay results from IntAct's records for PubMed 35512704.

B1: Speckle-type POZ protein (Homo sapiens), O43791 (parent)
chain: MSRVPSPPPPAEMSSGPVAESWCYTQIKVVKFSYMWTINNFSFCREEMGEVIKSSTFSSGANDKLKWCLRVNPKGLDEESKDYLSLYLLLVSCPKSEVRAKFKFSILNAKGEETKAMESQRAYRFVQGKDWGFKKFIRRDFLLDEANGLLPDDKLTLFCEVSVVQDSVNISGQNTMNMVKVPECRLADELGGLWENSRFTDCCLCVAGQEFQAHKAILAARSPVFSAMFEHEMEESKKNRVEINDVEPEVFKEMMCFIYTGKAPNLDKMADDLLAAADKYALERLKVMCEDALCSNLSVENAAEILILADLHSADQLKTQAVDFINYHASDVLETSGWKSMVVSHPHLVAEAYRSLASAQCPFLGPPRKRLKQS

Variants of: B1
Settings: with dll3_human DLL3, Q9NYJ7

| effect of a mutation on the interaction | Variant |
| --- | --- |
| with no effect | Y87C |

Variants of: B1
Settings: with duox2_human DUOX2, Q9NRD8

| effect of a mutation on the interaction | Variant |
| --- | --- |
| with no effect | Y87C |

Variants of: B1
Settings: with e2f1_human E2F1, Q01094

| effect of a mutation on the interaction | Variant |
| --- | --- |
| with no effect | Y87C |

Variants of: B1
Settings: with e2f2_human E2F2, Q14209

| effect of a mutation on the interaction | Variant |
| --- | --- |
| with no effect | Y87C |

Variants of: B1
Settings: with e2f3_human E2F3, O00716
e2f3_human E2F3, O00716, sequence (O00716 whole entry): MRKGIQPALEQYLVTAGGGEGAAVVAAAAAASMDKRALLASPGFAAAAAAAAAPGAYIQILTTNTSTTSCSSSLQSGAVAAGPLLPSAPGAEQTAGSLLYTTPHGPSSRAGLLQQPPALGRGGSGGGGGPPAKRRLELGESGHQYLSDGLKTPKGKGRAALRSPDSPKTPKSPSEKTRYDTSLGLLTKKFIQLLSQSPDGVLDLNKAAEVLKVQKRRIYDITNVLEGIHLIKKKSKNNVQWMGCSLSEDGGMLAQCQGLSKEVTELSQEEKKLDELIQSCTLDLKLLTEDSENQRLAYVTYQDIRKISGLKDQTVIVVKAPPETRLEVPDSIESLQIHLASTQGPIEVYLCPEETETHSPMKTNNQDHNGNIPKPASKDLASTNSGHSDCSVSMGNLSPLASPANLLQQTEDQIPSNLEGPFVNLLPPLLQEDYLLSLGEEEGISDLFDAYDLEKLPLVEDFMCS

| effect of a mutation on the interaction | Variant |
| --- | --- |
| with no effect | Y87C |

Variants of: B1
Settings: with e2f5_human E2F5, Q15329
e2f5_human E2F5, Q15329, sequence (Q15329 whole entry): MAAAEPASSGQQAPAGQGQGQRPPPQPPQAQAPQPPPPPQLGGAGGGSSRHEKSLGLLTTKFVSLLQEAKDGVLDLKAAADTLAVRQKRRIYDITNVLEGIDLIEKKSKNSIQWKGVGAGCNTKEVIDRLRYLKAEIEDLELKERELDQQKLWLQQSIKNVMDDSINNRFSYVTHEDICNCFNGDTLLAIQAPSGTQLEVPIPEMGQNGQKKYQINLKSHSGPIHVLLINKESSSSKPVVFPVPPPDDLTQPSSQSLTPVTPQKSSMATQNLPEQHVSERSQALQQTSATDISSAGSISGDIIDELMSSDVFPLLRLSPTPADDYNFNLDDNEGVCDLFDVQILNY

| effect of a mutation on the interaction | Variant |
| --- | --- |
| with no effect | Y87C |

Variants of: B1
Settings: with e2f6_human E2F6, O75461

| effect of a mutation on the interaction | Variant |
| --- | --- |
| with no effect | Y87C |

Variants of: B1
Settings: with e2f8_human E2F8, A0AVK6

| effect of a mutation on the interaction | Variant |
| --- | --- |
| with no effect | Y87C |

Variants of: B1
Settings: with if4e_human EIF4E

| effect of a mutation on the interaction | Variant |
| --- | --- |
| with no effect | Y87C |

Variants of: B1
Settings: with epha7_human EPHA7, Q15375

| effect of a mutation on the interaction | Variant |
| --- | --- |
| with no effect | Y87C |

Variants of: B1
Settings: with ephb1_human EPHB1, P54762

| effect of a mutation on the interaction | Variant |
| --- | --- |
| with no effect | Y87C |

Variants of: B1
Settings: with erbb3_human ERBB3, P21860

| effect of a mutation on the interaction | Variant |
| --- | --- |
| with no effect | Y87C |

Variants of: B1
Settings: with erbb4_human ERBB4, Q15303

| effect of a mutation on the interaction | Variant |
| --- | --- |
| with no effect | Y87C |

Variants of: B1
Settings: with esr1_human ESR1, P03372
esr1_human ESR1, P03372, sequence (P03372 whole entry): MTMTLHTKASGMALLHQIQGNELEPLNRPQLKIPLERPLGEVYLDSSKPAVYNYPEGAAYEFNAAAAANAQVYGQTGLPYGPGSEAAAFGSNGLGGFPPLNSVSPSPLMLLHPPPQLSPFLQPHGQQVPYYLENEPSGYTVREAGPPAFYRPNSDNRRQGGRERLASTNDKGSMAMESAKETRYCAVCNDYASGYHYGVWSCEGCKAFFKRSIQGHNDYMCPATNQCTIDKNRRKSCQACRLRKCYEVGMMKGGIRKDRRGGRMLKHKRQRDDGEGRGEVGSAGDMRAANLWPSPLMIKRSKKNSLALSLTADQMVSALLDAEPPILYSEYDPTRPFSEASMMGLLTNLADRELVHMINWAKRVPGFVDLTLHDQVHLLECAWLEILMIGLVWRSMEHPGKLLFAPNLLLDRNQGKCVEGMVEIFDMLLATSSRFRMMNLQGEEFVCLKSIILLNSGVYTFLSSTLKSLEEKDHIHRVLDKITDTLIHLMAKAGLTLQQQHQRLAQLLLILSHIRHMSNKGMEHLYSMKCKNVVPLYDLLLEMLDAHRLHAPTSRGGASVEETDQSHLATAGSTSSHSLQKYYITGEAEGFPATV

| effect of a mutation on the interaction | Variant |
| --- | --- |
| with no effect | Y87C |

Variants of: B1
Settings: with etv1_human ETV1, P50549

| effect of a mutation on the interaction | Variant |
| --- | --- |
| with no effect | Y87C |

Variants of: B1
Settings: with ezh1_human EZH1, Q92800

| effect of a mutation on the interaction | Variant |
| --- | --- |
| with no effect | Y87C |

Variants of: B1
Settings: with ezh2_human EZH2, Q15910

| effect of a mutation on the interaction | Variant |
| --- | --- |
| with no effect | Y87C |

Variants of: B1
Settings: with facd2_human FANCD2, Q9BXW9
facd2_human FANCD2, Q9BXW9, sequence (Q9BXW9 whole entry): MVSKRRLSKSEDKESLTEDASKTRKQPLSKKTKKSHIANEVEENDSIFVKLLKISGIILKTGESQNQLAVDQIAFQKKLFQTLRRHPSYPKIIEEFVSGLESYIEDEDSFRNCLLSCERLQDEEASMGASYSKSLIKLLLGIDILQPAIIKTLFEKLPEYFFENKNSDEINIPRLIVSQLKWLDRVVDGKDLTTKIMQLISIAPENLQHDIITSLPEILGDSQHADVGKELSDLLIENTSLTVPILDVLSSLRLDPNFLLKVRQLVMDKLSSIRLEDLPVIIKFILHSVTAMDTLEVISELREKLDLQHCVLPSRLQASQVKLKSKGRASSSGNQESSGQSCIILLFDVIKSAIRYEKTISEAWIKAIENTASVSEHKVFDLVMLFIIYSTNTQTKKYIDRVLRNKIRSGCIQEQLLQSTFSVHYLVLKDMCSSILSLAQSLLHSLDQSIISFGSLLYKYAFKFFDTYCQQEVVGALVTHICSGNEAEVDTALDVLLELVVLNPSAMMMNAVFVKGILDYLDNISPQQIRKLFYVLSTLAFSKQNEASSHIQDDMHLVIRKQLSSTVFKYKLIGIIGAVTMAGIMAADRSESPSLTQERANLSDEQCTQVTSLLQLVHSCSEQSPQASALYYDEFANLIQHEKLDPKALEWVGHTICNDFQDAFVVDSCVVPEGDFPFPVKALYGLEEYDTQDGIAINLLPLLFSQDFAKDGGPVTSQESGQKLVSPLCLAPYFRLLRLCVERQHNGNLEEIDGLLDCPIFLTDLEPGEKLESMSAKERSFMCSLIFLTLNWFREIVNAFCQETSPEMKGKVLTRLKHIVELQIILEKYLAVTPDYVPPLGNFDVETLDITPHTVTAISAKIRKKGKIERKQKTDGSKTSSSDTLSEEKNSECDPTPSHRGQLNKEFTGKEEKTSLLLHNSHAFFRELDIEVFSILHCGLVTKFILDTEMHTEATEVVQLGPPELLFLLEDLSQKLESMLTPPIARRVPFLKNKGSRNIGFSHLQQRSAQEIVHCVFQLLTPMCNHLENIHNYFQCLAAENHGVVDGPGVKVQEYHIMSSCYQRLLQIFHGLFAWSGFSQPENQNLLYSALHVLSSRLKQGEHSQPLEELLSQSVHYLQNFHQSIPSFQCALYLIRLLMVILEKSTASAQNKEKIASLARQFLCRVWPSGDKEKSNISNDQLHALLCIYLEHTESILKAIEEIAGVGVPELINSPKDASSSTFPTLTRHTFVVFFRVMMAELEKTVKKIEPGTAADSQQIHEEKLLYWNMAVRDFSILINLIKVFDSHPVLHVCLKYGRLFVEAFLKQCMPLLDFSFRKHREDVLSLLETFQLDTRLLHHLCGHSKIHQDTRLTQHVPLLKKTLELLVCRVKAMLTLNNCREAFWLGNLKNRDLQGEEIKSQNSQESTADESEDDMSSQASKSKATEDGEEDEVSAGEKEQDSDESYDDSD

| effect of a mutation on the interaction | Variant |
| --- | --- |
| with no effect | Y87C |

Variants of: B1
Settings: with tnr6_human FAS

| effect of a mutation on the interaction | Variant |
| --- | --- |
| with no effect | Y87C |

Variants of: B1
Settings: with fgf19_human FGF19, O95750

| effect of a mutation on the interaction | Variant |
| --- | --- |
| with no effect | Y87C |

Variants of: B1
Settings: with fgfp1_human FGFBP1, Q14512

| effect of a mutation on the interaction | Variant |
| --- | --- |
| with no effect | Y87C |

Variants of: B1
Settings: with fgfr4_human FGFR4, P22455

| effect of a mutation on the interaction | Variant |
| --- | --- |
| with no effect | Y87C |

Variants of: B1
Settings: with fumh_human FH

| effect of a mutation on the interaction | Variant |
| --- | --- |
| with no effect | Y87C |

Variants of: B1
Settings: with foxo3_human FOXO3, O43524

| effect of a mutation on the interaction | Variant |
| --- | --- |
| with no effect | Y87C |

Variants of: B1
Settings: with fzr1_human FZR1, Q9UM11

| effect of a mutation on the interaction | Variant |
| --- | --- |
| with no effect | Y87C |

Variants of: B1
Settings: with gbra6_human GABRA6, Q16445

| effect of a mutation on the interaction | Variant |
| --- | --- |
| with no effect | Y87C |

Variants of: B1
Settings: with gata1_human GATA1, P15976

| effect of a mutation on the interaction | Variant |
| --- | --- |
| with no effect | Y87C |

Variants of: B1
Settings: with p66b_human GATAD2B

| effect of a mutation on the interaction | Variant |
| --- | --- |
| with no effect | Y87C |

Variants of: B1
Settings: with gna11_human GNA11, P29992
gna11_human GNA11, P29992, sequence (P29992 whole entry): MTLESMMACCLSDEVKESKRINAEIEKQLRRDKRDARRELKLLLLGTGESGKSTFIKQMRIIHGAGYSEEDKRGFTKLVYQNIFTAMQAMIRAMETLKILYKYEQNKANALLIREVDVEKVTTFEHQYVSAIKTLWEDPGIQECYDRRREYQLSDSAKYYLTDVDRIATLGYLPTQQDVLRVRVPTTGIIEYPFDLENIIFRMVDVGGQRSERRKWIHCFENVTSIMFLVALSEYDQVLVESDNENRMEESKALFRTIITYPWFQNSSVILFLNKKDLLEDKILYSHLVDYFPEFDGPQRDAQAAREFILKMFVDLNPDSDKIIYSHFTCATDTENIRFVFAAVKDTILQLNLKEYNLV

| effect of a mutation on the interaction | Variant |
| --- | --- |
| with no effect | Y87C |

Variants of: B1
Settings: with gna13_human GNA13, Q14344

| effect of a mutation on the interaction | Variant |
| --- | --- |
| with no effect | Y87C |

Variants of: B1
Settings: with gnaq_human GNAQ

| effect of a mutation on the interaction | Variant |
| --- | --- |
| with no effect | Y87C |

Variants of: B1
Settings: with grm1_human GRM1, Q13255
grm1_human GRM1, Q13255, sequence (Q13255 whole entry, looked up): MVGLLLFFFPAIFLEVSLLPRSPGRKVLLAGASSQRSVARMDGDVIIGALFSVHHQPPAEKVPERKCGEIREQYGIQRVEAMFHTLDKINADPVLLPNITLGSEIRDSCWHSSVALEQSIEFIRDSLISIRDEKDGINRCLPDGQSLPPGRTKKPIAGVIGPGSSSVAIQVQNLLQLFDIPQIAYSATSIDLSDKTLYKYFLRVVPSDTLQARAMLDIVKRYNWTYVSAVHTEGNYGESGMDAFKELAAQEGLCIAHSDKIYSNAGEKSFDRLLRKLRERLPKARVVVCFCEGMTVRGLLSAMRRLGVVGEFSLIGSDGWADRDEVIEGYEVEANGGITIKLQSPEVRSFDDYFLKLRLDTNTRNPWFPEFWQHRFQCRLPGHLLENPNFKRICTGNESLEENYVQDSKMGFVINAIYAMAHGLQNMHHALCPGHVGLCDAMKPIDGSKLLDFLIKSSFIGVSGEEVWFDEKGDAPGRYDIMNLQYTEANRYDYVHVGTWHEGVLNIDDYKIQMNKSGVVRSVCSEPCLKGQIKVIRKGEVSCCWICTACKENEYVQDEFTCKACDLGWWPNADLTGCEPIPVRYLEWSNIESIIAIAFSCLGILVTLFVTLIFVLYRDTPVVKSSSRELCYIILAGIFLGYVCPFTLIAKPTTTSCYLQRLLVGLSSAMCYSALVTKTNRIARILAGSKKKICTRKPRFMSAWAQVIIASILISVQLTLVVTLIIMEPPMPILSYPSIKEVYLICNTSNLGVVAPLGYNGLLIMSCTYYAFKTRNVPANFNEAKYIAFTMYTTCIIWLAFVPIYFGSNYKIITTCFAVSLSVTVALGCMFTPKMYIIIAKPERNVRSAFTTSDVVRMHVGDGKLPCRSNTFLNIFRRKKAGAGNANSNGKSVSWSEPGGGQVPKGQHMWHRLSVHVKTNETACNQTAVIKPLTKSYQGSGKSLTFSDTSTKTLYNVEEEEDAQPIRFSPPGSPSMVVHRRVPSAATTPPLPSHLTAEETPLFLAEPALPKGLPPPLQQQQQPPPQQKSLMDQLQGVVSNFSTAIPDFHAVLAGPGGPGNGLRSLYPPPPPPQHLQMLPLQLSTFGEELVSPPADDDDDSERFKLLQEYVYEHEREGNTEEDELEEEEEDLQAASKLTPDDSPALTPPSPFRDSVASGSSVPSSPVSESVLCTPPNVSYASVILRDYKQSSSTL

| effect of a mutation on the interaction | Variant |
| --- | --- |
| with no effect | Y87C |

Variants of: B1
Settings: with grm3_human GRM3, Q14832

| effect of a mutation on the interaction | Variant |
| --- | --- |
| with no effect | Y87C |

Variants of: B1
Settings: with gsk3b_human GSK3B

| effect of a mutation on the interaction | Variant |
| --- | --- |
| with no effect | Y87C |

Variants of: B1
Settings: with gtpb4_human GTPBP4, Q9BZE4

| effect of a mutation on the interaction | Variant |
| --- | --- |
| with no effect | Y87C |

Variants of: B1
Settings: with h33_human H3-3A

| effect of a mutation on the interaction | Variant |
| --- | --- |
| with no effect | Y87C |

Variants of: B1
Settings: with hdac1_human HDAC1, Q13547

| effect of a mutation on the interaction | Variant |
| --- | --- |
| with no effect | Y87C |

Variants of: B1
Settings: with hdac3_human HDAC3, O15379
hdac3_human HDAC3, O15379, sequence (O15379 whole entry): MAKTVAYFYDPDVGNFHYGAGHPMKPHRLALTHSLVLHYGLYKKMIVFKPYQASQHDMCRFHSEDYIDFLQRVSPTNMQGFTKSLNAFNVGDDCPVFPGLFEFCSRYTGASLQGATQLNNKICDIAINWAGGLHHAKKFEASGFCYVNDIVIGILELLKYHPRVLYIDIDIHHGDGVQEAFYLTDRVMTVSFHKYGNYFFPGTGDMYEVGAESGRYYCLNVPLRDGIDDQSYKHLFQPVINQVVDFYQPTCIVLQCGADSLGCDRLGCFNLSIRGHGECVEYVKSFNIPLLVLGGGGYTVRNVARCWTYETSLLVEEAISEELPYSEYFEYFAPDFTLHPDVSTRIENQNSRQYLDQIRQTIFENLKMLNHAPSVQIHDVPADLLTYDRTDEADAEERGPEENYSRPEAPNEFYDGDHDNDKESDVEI

| effect of a mutation on the interaction | Variant |
| --- | --- |
| with no effect | Y87C |

Variants of: B1
Settings: with hgf_human HGF

| effect of a mutation on the interaction | Variant |
| --- | --- |
| with no effect | Y87C |

Variants of: B1
Settings: with h31_human H3C1, P68431

| effect of a mutation on the interaction | Variant |
| --- | --- |
| with no effect | Y87C |

Variants of: B1
Settings: with hlab_human HLA-B

| effect of a mutation on the interaction | Variant |
| --- | --- |
| with no effect | Y87C |

Variants of: B1
Settings: with hnf1a_human HNF1A

| effect of a mutation on the interaction | Variant |
| --- | --- |
| with no effect | Y87C |

Variants of: B1
Settings: with igf1r_human IGF1R

| effect of a mutation on the interaction | Variant |
| --- | --- |
| with no effect | Y87C |

Variants of: B1
Settings: with il7ra_human IL7R

| effect of a mutation on the interaction | Variant |
| --- | --- |
| with no effect | Y87C |

Variants of: B1
Settings: with int12_human INTS12, Q96CB8

| effect of a mutation on the interaction | Variant |
| --- | --- |
| with no effect | Y87C |
